Substitutions are numbered along the chain they refer to. In names and notes the source's numbering stands.
T1: Slr1022 (Synechocystis sp. PCC 6803, UniProt P73133)
T1 construct: gene argD
T1 sequence (P73133 1-429): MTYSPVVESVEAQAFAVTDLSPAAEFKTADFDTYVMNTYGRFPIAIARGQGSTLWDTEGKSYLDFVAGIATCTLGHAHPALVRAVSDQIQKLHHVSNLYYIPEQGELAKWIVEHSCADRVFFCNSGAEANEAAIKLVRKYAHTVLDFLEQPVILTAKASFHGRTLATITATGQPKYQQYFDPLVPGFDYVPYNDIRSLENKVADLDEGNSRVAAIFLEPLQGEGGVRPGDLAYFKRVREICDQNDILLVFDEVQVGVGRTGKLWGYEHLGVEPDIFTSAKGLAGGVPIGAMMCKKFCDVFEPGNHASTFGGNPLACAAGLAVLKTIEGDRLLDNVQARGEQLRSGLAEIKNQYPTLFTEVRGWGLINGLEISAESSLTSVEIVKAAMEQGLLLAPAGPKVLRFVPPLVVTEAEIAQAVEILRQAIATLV

B1: recombinant Slr1022 protein (N-acetylornithine aminotransferase encoded by slr1022 gene from Synechocystis sp. PCC6803) (enzyme, UniProt P73133 1-429, looked up)
chain: T1 sequence (P73133 1-429)
notes: N-acetylornithine aminotransferase (AcOAT) encoded by the slr1022 (argD) gene of Synechocystis sp; PCC6803; monomer printed as 49 kDa; The purified protein carries the cofactor PLP as internal aldimine (absorption at 410 nm); also called AcOAT; wild-type Slr1022; source: E. coli BL21 (DE3), pET28a-slr1022, purified (Ni-NTA)
B2: Slr1022 (Synechocystis sp. PCC 6803 substr. Kazusa; T308A) (protein)
chain: T1 sequence (P73133 1-429) with T308A
B3: Slr1022 (Synechocystis sp. PCC 6803 substr. Kazusa; Y39F) (protein)
chain: T1 sequence (P73133 1-429) with Y39F
B4: Slr1022 (Synechocystis sp. PCC 6803 substr. Kazusa; A127S) (protein)
chain: T1 sequence (P73133 1-429) with A127S
B5: Slr1022 (Synechocystis sp. PCC 6803 substr. Kazusa; E223A) (protein)
chain: T1 sequence (P73133 1-429) with E223A
B6: Slr1022 (Synechocystis sp. PCC 6803 substr. Kazusa; E223S) (protein)
chain: T1 sequence (P73133 1-429) with E223S
B7: Slr1022 (Synechocystis sp. PCC 6803 substr. Kazusa; S125A) (protein)
chain: T1 sequence (P73133 1-429) with S125A
B8: Slr1022 (Synechocystis sp. PCC 6803 substr. Kazusa; Q254A) (protein)
chain: T1 sequence (P73133 1-429) with Q254A
B9: Slr1022 (Synechocystis sp. PCC 6803 substr. Kazusa; D251E) (protein)
chain: T1 sequence (P73133 1-429) with D251E

Experiments:
Slr1022 = target: T1, Slr1022; test: UV-visible absorption at […] nm (internal aldimine); format: binding; settings: 100 mmol/L Tris-HCl pH 8.5; covalent (Schiff base)
[1] = target: the molecule itself; test: SEC; FPLC, Bio-Rad NGC system, ENrich SEC 650 gel filtration column, mobile phase standard PBS without exogenous PLP; mass calibrated with myoglobin, ovalbumin, bovine serum albumin and gamma-globulin
purified protein [2] = substrate: O=C(O)CCC(=O)C(=O)O; test: purified protein; format: biochemical, Synechocystis sp. PCC 6803; settings: 100 mmol/L Orn as amino donor, 0.1 mmol/L PLP, 6 mmol/L NAD+, 100 mmol/L Tris-HCl pH 8.5, 25 °C, apparent
purified protein [3] = substrate: NCCC[C@H](N)C(=O)O; test: purified protein; settings: 0.5 mmol/L α-KG, 0.1 mmol/L PLP, 6 mmol/L NAD+, 100 mmol/L Tris-HCl pH 8.5, 25 °C, apparent
purified protein [4] = substrate: NCCCC(=O)O; test: purified protein; settings: 0.5 mmol/L α-KG, 0.05 mmol/L PLP, 2 mmol/L Mg2+, 2 mmol/L NADP+, 100 mmol/L Tris-HCl pH 8.5, 25 °C, apparent
purified protein [5] = substrate: CC(=O)N[C@@H](CCCN)C(=O)O; test: purified protein; format: biochemical, Synechocystis sp. PCC 6803; settings: saturating α-KG, 0.1 mmol/L PLP, 6 mmol/L NAD+, 100 mmol/L Tris-HCl pH 8.5, 25 °C, apparent

Row | Molecule | Km (purified protein [5]) [µM] | kcat (purified protein [5]) [s⁻¹] | further results
1 | Cc1ncc(COP(=O)(O)O)c(C=O)c1O [PLP] | – | – | UV-visible absorption at 410 nm (internal aldimine) (Slr1022): indicating that the cofactor PLP was bound to Slr1022 in the form of internal aldimine
2 | B1 | – | – | stoichiometry N [1]: 2; Km (purified protein [2]): 130 ± 30 µM; kcat (purified protein [2]): 0.11 ± 0.01 s⁻¹; kcat/Km (purified protein [2]): 846 M⁻¹ s⁻¹; Km (purified protein [3]): 20900 ± 3500 µM; kcat (purified protein [3]): 0.16 s⁻¹; kcat/Km (purified protein [3]): 7.7 M⁻¹ s⁻¹; Km (purified protein [4]): 78100 ± 18700 µM; kcat (purified protein [4]): 0.14 s⁻¹; kcat/Km (purified protein [4]): 1.8 M⁻¹ s⁻¹
3 | B2 | 140 ± 20 | 0.007 ± 0.002 | –
4 | B3 | 470 ± 50 | 0.17 ± 0.01 | –
5 | B4 | 590 ± 120 | 0.21 ± 0.01 | –
6 | B5 | 7770 ± 1760 | 1.17 ± 0.09 | –
7 | B6 | 8810 ± 2960 | 3.67 ± 0.43 | –
8 | B7 | 230 ± 20 | 0.32 ± 0.01 | –
9 | B8 | 110 ± 10 | 0.02 ± 0.0005 | –
10 | B9 | 1390 ± 220 | 0.47 ± 0.03 | –

— paper PMC10057298, “Kinetic Characterization and Catalytic Mechanism of N-Acetylornithine Aminotransferase Encoded by slr1022 Gene from Synechocystis sp. PCC6803” (International Journal of Molecular Sciences, 2023)
